Experiment [1] concerns the target T1, membrane-bound human LIGHT (human, UniProt O43557 1-240).
T1 construct: whole, on cells; also called LIGHT/HEK293
Nature of the experiment: flow cytometry on expressing cells. Put shortly: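 Binding was measured by flow cytometry on HEK293 cells forced to express membrane-bound LIGHT and on cell lines expressing N-terminally Met/FLAG-tagged TL1A or FasL from a CMV-promoter pClpuro vector. Cells at 1×10⁵ cells/well received 1 or 10 μg/mL protein on ice for 1 hour. After washing, cells were stained on ice for 1 hour with LIVE/DEAD Fixable Aqua and R-phycoerythrin goat F(ab′)₂ anti-human IgG (10 ng/mL, 0.1 or 1 μg/mL). Fluorescence was read on a FACS Fortessa.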

The target of experiment [2] is T2, soluble recombinant of human TL1A (His6, GS linker, Leu72-Leu251) (human, UniProt O95150 72-251).
T2 construct: also called His6-TL1A; hTL1A
T2 sequence: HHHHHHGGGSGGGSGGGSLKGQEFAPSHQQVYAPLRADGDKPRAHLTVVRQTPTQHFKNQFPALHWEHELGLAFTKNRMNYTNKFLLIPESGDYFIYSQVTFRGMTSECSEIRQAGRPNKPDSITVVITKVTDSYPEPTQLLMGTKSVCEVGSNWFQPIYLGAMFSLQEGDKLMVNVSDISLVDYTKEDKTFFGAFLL
The experiment in a line: SPR, binder captured on Protein A chip. On the procedure: (§1) The binding activity to human and cynomolgus monkey DcR3 ligand trimers were analyzed by the SPR method. BIAcore T-100 (GE Healthcare) was used for measurement of the binding activities to human LIGHT, cynomolgus monkey LIGHT, human TL1A and cynomolgus monkey TL1A, and BIAcore T-200 (GE Healthcare) was used for measurement of the binding activities to human FasL and cynomolgus monkey FasL. As the buffer, HBS-EP+Buffer was used.
(§2) Various DcR3 variants were injected into Series S Sensor Chip Protein A (GE Healthcare) at 10 μL/min for 30 seconds and captured. Meanwhile, the buffer containing no protein was injected into a reference flow cell. Thereafter, as an analyte, each human DcR3 ligand trimer or each cynomolgus monkey DcR3 ligand trimer diluted to 0.08 to 20 nmol/L was injected. A human LIGHT trimer, a human TL1A trimer or each cynomolgus monkey DcR3 ligand trimer was injected at the flow rate of 30 μL/min for 2 minutes to monitor the binding, and subsequently the buffer was injected for 5 minutes to monitor dissociation. A human FasL trimer was injected at 30 μL/min for 1 minute to monitor the binding, and subsequently the buffer was injected for 3 minutes to monitor dissociation. Then, 3 mol/L magnesium chloride was injected at 30 μL/min for 1 minute to perform a regeneration reaction.

The target in experiment [3] is T3, soluble recombinant of cynomolgus monkey TL1A (His6, GS linker, Leu72-Leu251) (cynomolgus monkey).
T3 construct: also called His6-cynoTL1A
T3 chain: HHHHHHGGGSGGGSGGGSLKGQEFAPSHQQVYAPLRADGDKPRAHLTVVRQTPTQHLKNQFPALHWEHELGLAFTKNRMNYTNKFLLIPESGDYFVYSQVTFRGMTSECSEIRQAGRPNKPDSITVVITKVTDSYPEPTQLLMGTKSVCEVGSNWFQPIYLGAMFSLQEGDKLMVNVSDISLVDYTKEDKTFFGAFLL
The experiment in a line: SPR, binder captured on Protein A chip. The method, then:
as §1, §2

Experiment [4] has as its target T4, soluble recombinant of cynomolgus monkey FasL (His6, Pro133-Leu280) (cynomolgus monkey, UniProt P63308 133-280).
T4 construct: also called His6-cynoFasL
T4 sequence: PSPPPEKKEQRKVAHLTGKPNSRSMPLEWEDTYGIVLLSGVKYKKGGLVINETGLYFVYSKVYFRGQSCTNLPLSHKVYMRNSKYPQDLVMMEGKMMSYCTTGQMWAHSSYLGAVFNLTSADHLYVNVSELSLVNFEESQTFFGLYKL
Nature of the experiment: SPR, binder captured on Protein A chip. On the procedure:
as §1, §2

Experiment [5] has as its target T5, FLAG-LIGHT (FLAG tag, human LIGHT Asp74-Val240) (human, UniProt O43557 74-240).
T5 construct: SEC trimer fraction; also called soluble recombinant FLAG-LIGHT trimer; soluble human LIGHT trimer
The experiment in a line: SPR, binder captured on Protein A chip. On the procedure: as §1, §2

In experiment [6] the target is T6, Human His6 Fas Ligand/TNFSF6 (Cell Signaling Technology, Inc.) (human, UniProt P48023 133-281).
T6 construct: Bought; confirmed as a trimer by SEC-MALS; also called recombinant human His6 Fas Ligand; soluble human FasL trimer
T6 sequence: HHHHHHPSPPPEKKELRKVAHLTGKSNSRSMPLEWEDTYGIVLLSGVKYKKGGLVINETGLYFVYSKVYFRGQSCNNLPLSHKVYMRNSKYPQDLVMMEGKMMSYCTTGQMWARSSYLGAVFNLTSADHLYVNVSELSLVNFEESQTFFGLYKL
Nature of the experiment: SPR, binder captured on Protein A chip. On the procedure: as §1, §2

The target of experiment [7] is T7, FLAG-cynoLIGHT (FLAG tag, cynomolgus monkey LIGHT Asp74-Val240) (cynomolgus monkey).
T7 construct: SEC trimer fraction; also called soluble cynomolgus monkey LIGHT trimer
T7 chain: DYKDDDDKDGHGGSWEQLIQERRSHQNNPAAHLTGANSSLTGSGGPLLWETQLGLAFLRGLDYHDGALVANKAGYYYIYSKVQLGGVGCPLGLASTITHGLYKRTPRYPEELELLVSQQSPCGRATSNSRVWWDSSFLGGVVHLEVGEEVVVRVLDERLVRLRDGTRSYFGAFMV
Nature of the experiment: SPR, binder captured on Protein A chip. On the procedure:
as §1, §2

For experiment [8], the target named is T8, soluble recombinant of cynomolgus monkey LIGHT (His10, GS linker, Asp74-Val240).
T8 chain: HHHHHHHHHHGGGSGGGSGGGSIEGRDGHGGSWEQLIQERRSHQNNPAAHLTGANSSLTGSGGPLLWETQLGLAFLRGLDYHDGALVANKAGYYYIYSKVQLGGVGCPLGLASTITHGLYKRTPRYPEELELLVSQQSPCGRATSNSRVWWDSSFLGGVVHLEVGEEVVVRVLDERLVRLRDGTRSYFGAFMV
Nature of the experiment: BIAcore SPR. Put shortly: (§3)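 Binding of each test molecule to soluble recombinant His-tagged human or cynomolgus monkey LIGHT, TL1A or FasL was analysed by surface plasmon resonance. Measurements used a BIAcore T-100 or T-200 instrument (GE Healthcare) in HBS-EP+ Buffer. The dissociation constant (Kd, nM) was derived from these measurements.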

For experiment [9], the target named is T9, soluble recombinant of cynomolgus monkey FasL (His6, Pro133-Leu280) (UniProt P63308 133-280).
T9 chain: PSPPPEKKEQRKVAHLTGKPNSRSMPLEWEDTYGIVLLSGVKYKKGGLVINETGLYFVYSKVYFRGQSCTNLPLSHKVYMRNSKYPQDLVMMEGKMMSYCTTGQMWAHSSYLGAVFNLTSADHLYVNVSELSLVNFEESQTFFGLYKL
The experiment in a line: BIAcore SPR. Put shortly:
as §3

Experiment [10] addresses T10, soluble recombinant of cynomolgus monkey TL1A (His6, GS linker, Leu72-Leu251).
T10 chain: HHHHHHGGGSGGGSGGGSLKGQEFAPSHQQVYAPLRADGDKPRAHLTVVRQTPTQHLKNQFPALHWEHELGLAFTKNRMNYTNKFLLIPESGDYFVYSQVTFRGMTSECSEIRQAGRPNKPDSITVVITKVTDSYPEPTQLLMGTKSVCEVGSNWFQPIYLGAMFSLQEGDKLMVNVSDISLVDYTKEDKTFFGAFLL
The experiment in a line: BIAcore SPR. In outline:
as §3

T1 sequence (O43557 whole entry): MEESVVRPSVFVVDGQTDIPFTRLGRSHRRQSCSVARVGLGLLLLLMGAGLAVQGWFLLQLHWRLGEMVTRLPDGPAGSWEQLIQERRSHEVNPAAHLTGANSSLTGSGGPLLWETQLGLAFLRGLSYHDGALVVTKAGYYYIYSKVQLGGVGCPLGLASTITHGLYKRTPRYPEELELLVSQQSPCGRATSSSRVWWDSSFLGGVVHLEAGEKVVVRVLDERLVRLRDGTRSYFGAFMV

B1: chimera A-E57K_R58D-Fc (Eg1S LALAGANA) (Fc fusion)
chain: ETFPPKYLHYDEETSHQLLCDKCPPGTYLKQHCTAKWKTVCAPCPPRHYTQFWNYLKDCRYCNVLCGEREEEARACHATHNRACRCRTGFFAHAGFCLEHASCPPGAGVIAPGTPSQNTQCQPCPDGFFSNETSSKAPCRKHTNCSVFGLLLTQKGNATHDNICSGNSESTQKEPKSSDKTHTCPPCPAPEAAGAPSVFLFPPKPKDTLMISRTPEVTCVVVDVSHEDPEVKFNWYVDGVEVHNAKTKPREEQYNSTYRVVSVLTVLHQDWLNGKEYKCKVSNKALPAPIEKTISKAKGQPREPQVYTLPPSRDELTKNQVSLTCLVKGFYPSDIAVEWESNGQPENNYKTTPPVLDSDGSFFLYSKLTVDKSRWQQGNVFSCSVMHEALHAHYTQKSLSLSPGK
Consider B1, for which the binding result in experiment [1], in experiment [2], in experiment [3], in experiment [4], in experiment [5] and in experiment [6] was “binds” each time. Further, the binding result in [7] was “binds”. Further, the Kd stood at 300 pM in experiment [8], 960 pM in experiment [9] and 190 pM in experiment [10].

B2: chimera A-Fc (Eg1S LALAGANA) (Fc fusion)
chain: ETFPPKYLHYDEETSHQLLCDKCPPGTYLKQHCTAKWKTVCAPCPPRHYTQFWNYLERCRYCNVLCGEREEEARACHATHNRACRCRTGFFAHAGFCLEHASCPPGAGVIAPGTPSQNTQCQPCPDGFFSNETSSKAPCRKHTNCSVFGLLLTQKGNATHDNICSGNSESTQKEPKSSDKTHTCPPCPAPEAAGAPSVFLFPPKPKDTLMISRTPEVTCVVVDVSHEDPEVKFNWYVDGVEVHNAKTKPREEQYNSTYRVVSVLTVLHQDWLNGKEYKCKVSNKALPAPIEKTISKAKGQPREPQVYTLPPSRDELTKNQVSLTCLVKGFYPSDIAVEWESNGQPENNYKTTPPVLDSDGSFFLYSKLTVDKSRWQQGNVFSCSVMHEALHAHYTQKSLSLSPGK
For B2, the binding result in [1], in experiment [2], in [3], in experiment [4], in experiment [5] and in experiment [6] was “binds” each time. Also, in [7], the binding result is “binds”. The Kd stood at 210 pM in [8], 220 pM in experiment [9] and 110 pM in experiment [10].

B3: chimera A-Fc (Eg1S YTE) (Fc fusion)
chain: ETFPPKYLHYDEETSHQLLCDKCPPGTYLKQHCTAKWKTVCAPCPPRHYTQFWNYLERCRYCNVLCGEREEEARACHATHNRACRCRTGFFAHAGFCLEHASCPPGAGVIAPGTPSQNTQCQPCPDGFFSNETSSKAPCRKHTNCSVFGLLLTQKGNATHDNICSGNSESTQKEPKSSDKTHTCPPCPAPELLGGPSVFLFPPKPKDTLYITREPEVTCVVVDVSHEDPEVKFNWYVDGVEVHNAKTKPREEQYNSTYRVVSVLTVLHQDWLNGKEYKCKVSNKALPAPIEKTISKAKGQPREPQVYTLPPSRDELTKNQVSLTCLVKGFYPSDIAVEWESNGQPENNYKTTPPVLDSDGSFFLYSKLTVDKSRWQQGNVFSCSVMHEALHNHYTQKSLSLSPGK
B3: the binding result in [1], in experiment [2], in experiment [3], in experiment [4], in experiment [5] and in experiment [6] was “binds” throughout. Moreover, the binding result in [7] is on record as “binds”. In addition, the Kd in [8] came out at 280 pM; in experiment [9], 270 pM; in experiment [10] it was 170 pM.

B4: chimera A-E57K_R58D-Fc (Eg1S YTE) (Fc fusion)
chain: ETFPPKYLHYDEETSHQLLCDKCPPGTYLKQHCTAKWKTVCAPCPPRHYTQFWNYLKDCRYCNVLCGEREEEARACHATHNRACRCRTGFFAHAGFCLEHASCPPGAGVIAPGTPSQNTQCQPCPDGFFSNETSSKAPCRKHTNCSVFGLLLTQKGNATHDNICSGNSESTQKEPKSSDKTHTCPPCPAPELLGGPSVFLFPPKPKDTLYITREPEVTCVVVDVSHEDPEVKFNWYVDGVEVHNAKTKPREEQYNSTYRVVSVLTVLHQDWLNGKEYKCKVSNKALPAPIEKTISKAKGQPREPQVYTLPPSRDELTKNQVSLTCLVKGFYPSDIAVEWESNGQPENNYKTTPPVLDSDGSFFLYSKLTVDKSRWQQGNVFSCSVMHEALHNHYTQKSLSLSPGK
notes: also called 45-10-Fc (Eg1S YTE)
For B4, the binding result in experiment [1], in experiment [2], in experiment [3], in experiment [4], in experiment [5] and in experiment [6] was “binds” throughout. The binding result in experiment [7] is reported as “binds”. Besides, the Kd in experiment [8] is 310 pM; in experiment [9], 1200 pM; in experiment [10], 250 pM.

B5: chimera A-E57K_R58E-Fc (Eg1S YTE) (Fc fusion)
chain: ETFPPKYLHYDEETSHQLLCDKCPPGTYLKQHCTAKWKTVCAPCPPRHYTQFWNYLKECRYCNVLCGEREEEARACHATHNRACRCRTGFFAHAGFCLEHASCPPGAGVIAPGTPSQNTQCQPCPDGFFSNETSSKAPCRKHTNCSVFGLLLTQKGNATHDNICSGNSESTQKEPKSSDKTHTCPPCPAPELLGGPSVFLFPPKPKDTLYITREPEVTCVVVDVSHEDPEVKFNWYVDGVEVHNAKTKPREEQYNSTYRVVSVLTVLHQDWLNGKEYKCKVSNKALPAPIEKTISKAKGQPREPQVYTLPPSRDELTKNQVSLTCLVKGFYPSDIAVEWESNGQPENNYKTTPPVLDSDGSFFLYSKLTVDKSRWQQGNVFSCSVMHEALHNHYTQKSLSLSPGK
notes: also called 45-18-Fc (Eg1S YTE)
Regarding B5, the binding result in [1], in [2], in experiment [3], in experiment [4], in experiment [5] and in experiment [6] was “binds” throughout. In experiment [7], the binding result is “binds”. The Kd in experiment [8] turned out to be 350 pM; in experiment [9], 1200 pM; in experiment [10] it was 210 pM.

The values above are taken from patent US20220340642A1 (Kyowa Kirin, published 2022).
